Read-outs that look alike come from different tables or passages of the source.

For series [1], the target named is T1, endogenous HSF1 of CEM-GFP cells (human (endogenous in CEM-GFP)), Q00613.
T1 chain: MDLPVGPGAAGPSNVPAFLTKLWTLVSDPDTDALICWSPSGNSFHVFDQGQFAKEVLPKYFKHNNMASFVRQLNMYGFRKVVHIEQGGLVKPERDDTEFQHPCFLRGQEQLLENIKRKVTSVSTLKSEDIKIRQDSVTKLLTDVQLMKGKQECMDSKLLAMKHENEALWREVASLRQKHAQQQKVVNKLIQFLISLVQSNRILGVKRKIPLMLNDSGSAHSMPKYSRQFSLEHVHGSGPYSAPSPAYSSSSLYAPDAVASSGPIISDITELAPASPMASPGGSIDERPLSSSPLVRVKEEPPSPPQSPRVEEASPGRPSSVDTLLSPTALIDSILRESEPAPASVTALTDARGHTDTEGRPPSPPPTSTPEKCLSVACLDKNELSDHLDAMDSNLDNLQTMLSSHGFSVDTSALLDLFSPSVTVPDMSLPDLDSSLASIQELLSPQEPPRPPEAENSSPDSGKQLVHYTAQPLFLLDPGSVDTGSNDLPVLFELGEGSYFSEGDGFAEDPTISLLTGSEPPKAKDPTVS
Nature of the series: cross-linking. The note with it: remark: other sources report otherwise.

For series [2], the target named is T2, His-HSF1 (human, UniProt Q00613 1-529). The series can be described thus: EMSA.
Series [3] concerns the target T2, His-HSF1. The series can be described thus: EMSA. This is another data set of the same source. In general terms: In EMSA bound probe runs differently from free probe, usually more slowly.

B1: endogenous HSF1 of CEM-GFP cells, Q00613 1-529 (natural protein)
chain: MDLPVGPGAAGPSNVPAFLTKLWTLVSDPDTDALICWSPSGNSFHVFDQGQFAKEVLPKYFKHNNMASFVRQLNMYGFRKVVHIEQGGLVKPERDDTEFQHPCFLRGQEQLLENIKRKVTSVSTLKSEDIKIRQDSVTKLLTDVQLMKGKQECMDSKLLAMKHENEALWREVASLRQKHAQQQKVVNKLIQFLISLVQSNRILGVKRKIPLMLNDSGSAHSMPKYSRQFSLEHVHGSGPYSAPSPAYSSSSLYAPDAVASSGPIISDITELAPASPMASPGGSIDERPLSSSPLVRVKEEPPSPPQSPRVEEASPGRPSSVDTLLSPTALIDSILRESEPAPASVTALTDARGHTDTEGRPPSPPPTSTPEKCLSVACLDKNELSDHLDAMDSNLDNLQTMLSSHGFSVDTSALLDLFSPSVTVPDMSLPDLDSSLASIQELLSPQEPPRPPEAENSSPDSGKQLVHYTAQPLFLLDPGSVDTGSNDLPVLFELGEGSYFSEGDGFAEDPTISLLTGSEPPKAKDPTVS
What is called stoichiometry N is the number of molecules, sites or subunits per partner or assembly. B1 came in with a stoichiometry N in series [1] of 3.

B2: P1 (both NF-kB sites of LTR) (dsDNA)
DNA 1: GGGACTTTCCGCTGGGGACTTTCC
DNA 2: GGAAAGTCCCCAGCGGAAAGTCCC
In the case of B2, the binding result with His-HSF1 [2] is listed as “no binding”.

B3: P4 (2nd and 3rd Sp1 site) (dsDNA)
DNA 1: GGGAGGTGTGGCCTGGGCGGGAC
DNA 2: GTCCCGCCCAGGCCACACCTCCC
For the molecule B3, the binding result in the series with His-HSF1 [2] is listed as “no binding”.

B4: P2 (NF-kB and 3rd Sp1 site, LTR -91 to -69) (dsDNA)
DNA 1: GGGACTTTCCAGGGAGGTGTGGC
DNA 2: GCCACACCTCCCTGGAAAGTCCC
As for B4, the binding result in the series with His-HSF1 [3] was “binds”.

B5: P3 (1st and 2nd Sp1 site) (dsDNA)
DNA 1: TGGGCGGGACTGGGGAGTGGCG
DNA 2: CGCCACTCCCCAGTCCCGCCCA
On to B5, for which the binding result in the series with His-HSF1 [2] was “no binding”.

(Values after article PMC3152347.)
